Test [1] concerns the target T1, human Nectin-4(C-6His), Novoprotein Cat# CJ19 (human, UniProt Q96NY8 32-349).
T1 construct: Bought protein; also called recombinant human Nectin4 protein; antigen Nectin-4
T1 sequence: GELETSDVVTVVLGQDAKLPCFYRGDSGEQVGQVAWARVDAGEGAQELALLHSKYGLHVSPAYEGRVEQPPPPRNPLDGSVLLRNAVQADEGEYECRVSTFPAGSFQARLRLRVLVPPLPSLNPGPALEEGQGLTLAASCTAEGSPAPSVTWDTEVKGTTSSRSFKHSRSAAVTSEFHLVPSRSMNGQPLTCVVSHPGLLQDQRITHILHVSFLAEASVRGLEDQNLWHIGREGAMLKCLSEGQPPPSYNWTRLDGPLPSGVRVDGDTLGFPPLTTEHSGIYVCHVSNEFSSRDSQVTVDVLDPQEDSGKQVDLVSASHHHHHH
The test is described as follows: ELISA, plate coated with 1 µg/ml human Nectin-4(C-6His), HRP-labelled secondary antibody, absorbance at 450 nm. As to the method: Plates were coated with 1 µg/ml of the antigens and incubated at 4° C. overnight; next, antibodies serially diluted were added into the plates. Finally, the HRP-labeled secondary antibody was added, and absorbance at 450 nm was detected.
Background: ELISA stands for enzyme-linked immunosorbent assay.

In test [2] the target is T2, human Nectin-4 (human, UniProt Q96NY8 32-510).
T2 construct: whole, on cells; Cell-surface target of the FACS, endocytosis and proliferation assays (CHO-huNectin4 S8 cells, BT474 cells); the assay field says which cells; also called huNectin4; PVRL4
T2 sequence (looked up): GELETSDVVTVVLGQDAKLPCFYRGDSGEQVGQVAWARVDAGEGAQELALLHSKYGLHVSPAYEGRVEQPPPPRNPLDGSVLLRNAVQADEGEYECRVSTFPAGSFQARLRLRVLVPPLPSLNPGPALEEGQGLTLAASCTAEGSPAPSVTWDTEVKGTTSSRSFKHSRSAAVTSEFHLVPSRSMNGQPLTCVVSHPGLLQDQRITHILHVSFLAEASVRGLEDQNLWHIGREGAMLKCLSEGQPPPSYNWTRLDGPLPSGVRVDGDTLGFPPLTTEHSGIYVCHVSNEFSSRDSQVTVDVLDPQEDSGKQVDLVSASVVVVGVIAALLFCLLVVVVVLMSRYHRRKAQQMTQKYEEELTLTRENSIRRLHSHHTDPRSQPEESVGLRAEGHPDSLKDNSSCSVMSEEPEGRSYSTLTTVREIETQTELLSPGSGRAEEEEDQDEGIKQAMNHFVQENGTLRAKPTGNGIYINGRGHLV
The test is described as follows: FACS on CHO-huNectin4 S8 cells.

The target of the next test is T3, Cyno Nectin4 (Cyno, UniProt Q96NY8 32-510 (human entry)).
T3 construct: Expressed on HEK293 cells (HEK-cynoNectin4)
T3 chain: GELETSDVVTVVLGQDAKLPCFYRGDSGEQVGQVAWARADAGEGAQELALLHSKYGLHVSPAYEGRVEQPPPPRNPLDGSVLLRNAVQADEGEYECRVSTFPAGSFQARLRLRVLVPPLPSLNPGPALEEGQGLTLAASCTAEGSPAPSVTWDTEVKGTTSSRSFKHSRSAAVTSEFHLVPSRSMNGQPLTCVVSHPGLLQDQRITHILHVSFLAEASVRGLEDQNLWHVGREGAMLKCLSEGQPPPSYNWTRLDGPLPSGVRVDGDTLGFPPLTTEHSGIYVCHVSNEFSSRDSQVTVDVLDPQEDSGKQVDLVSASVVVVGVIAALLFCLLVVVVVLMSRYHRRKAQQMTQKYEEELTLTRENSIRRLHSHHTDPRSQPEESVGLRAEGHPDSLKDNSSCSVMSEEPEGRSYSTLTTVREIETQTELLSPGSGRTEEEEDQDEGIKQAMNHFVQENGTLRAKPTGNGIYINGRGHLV
Put plainly: FACS on HEK-cynoNectin4 cells.

Test [3] addresses T4, His-tagged human NECTIN4 (human, UniProt Q96NY8 32-349).
T4 construct: Antigen of the BIAcore assay; also called antigen; recombinant NECTIN4 protein; not shown: His tag
T4 sequence: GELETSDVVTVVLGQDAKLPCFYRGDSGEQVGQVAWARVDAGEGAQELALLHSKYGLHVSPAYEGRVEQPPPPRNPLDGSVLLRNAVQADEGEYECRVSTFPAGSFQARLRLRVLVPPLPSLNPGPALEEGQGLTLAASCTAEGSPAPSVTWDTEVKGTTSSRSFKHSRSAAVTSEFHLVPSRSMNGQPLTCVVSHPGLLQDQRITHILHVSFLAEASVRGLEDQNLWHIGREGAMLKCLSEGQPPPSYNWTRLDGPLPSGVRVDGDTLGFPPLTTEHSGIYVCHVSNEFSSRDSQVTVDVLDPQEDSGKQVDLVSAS
Put plainly: SPR (BIAcore S200), antigen on CAP chip, antibody as analyte, 1:1 fit. As to the method:
Interactions between the antibodies and the antigen were measured using a BIAcore instrument S200 from GE. Referring to the instructions provided in Biotin Capture Kit from GE Healthcare, the analytical channel and the control sample channel on CAP sensor chip were first coupled with antigen i.e. His-tagged human NECTIN4, then samples containing antibodies (diluted 3-fold from an initial concentration of 20 nM respectively and solutions of each antibody of 8 concentrations were obtained totally, and the concentration 0.741 nM was set to be repeated) were allowed to flow through both the analytical channel and the sample channel, and the photoreactions upon antibody-antigen binding were measured. Association constant Kon and dissociation constant Koff and affinity constant KD of each antibody were finally obtained by instrument software fitting (1:1 binding mode) analysis.

Test [4] concerns the target T2, human Nectin-4. The test is described as follows: FACS on BT474 cells. As to the method: (§1) The solutions of different concentrations were added to 384-well plates, 10 µl per well.
(§2) BT474 cells (breast cancer cells) expressing Nectin-4 on the cell surface were collected by centrifugation at 100 g at room temperature for 5 minutes, and then the cells were washed with PBS containing 0.5% BSA once and were centrifuged at 100 g at room temperature for 5 minutes. […] After incubation at 4° C. for 1 hour, fluorescently labeled goat anti-human IgG secondary antibody was added. After continued incubation at 4° C. for 1 hour, mean fluorescence readings of the cell populations were analyzed by a flow cytometer.
The experiment results of the binding of engineered humanized molecules of the present disclosure to BT474 cells by FACS assay are shown in panels 3B and 3C in FIG. 3 and Tables 6 and 7.

The target of test [5] is T2, human Nectin-4. Put plainly: FACS on BT474 cells. As to the method: as §1, §2
The source holds these as a separate data set.

Test [6] addresses T4, His-tagged human NECTIN4. The test is described as follows: ELISA, antibody without cyno serum, plate coated with 0.2 µg/ml antigen, HRP goat anti-human IgG, OD450. The sheet does not say which of the two plates of Example 13 is drawn.

As usually defined, the EC50 (read off the curve) is the midpoint of the concentration-response curve. A high value points to lower potency in that assay. For orientation: EC50 means the concentration that produces a half-maximal response. In general, Kd refers to a measure of binding affinity in units of concentration.

B1: 42D20 hz10 (antibody, V domains shown)
VH: QVQLQESGPGLVKPSETLSLTCTVSGFSLIDYGVSWIRQPPGKGLEWIGVIWGDGKIYYNSVLKSRVTISKDNSKSQVSLKLSSVTAADTAVYYCAKQGGLLFYAMDYWGQGTLVTVSS
VL: DIVMTQSPDSLAVSLGERATINCKSSQSLLNSYSQKNYLAWYQQKPGQPPKLLIYFASTRESGVPDRFSGSGSGTDFTLTISSLQAEDVAVYYCQQHYNTPFTFGAGTKLELKR
notes: Humanized
On to B1, for which the “EC50 (read off the curve)” value in test [1] is ~0.09 µg/mL. The values for the EC50 with human Nectin-4 [2] and with Cyno Nectin4 were 0.801 µg/mL and 2.42 to 4.97 µg/mL, respectively. The Kd in the test with His-tagged human NECTIN4 [3] was 1.14 nM.

B2: Enfortumab (antibody, human IgG1, kappa, V domains shown)
VH: EVQLVESGGGLVQPGGSLRLSCAASGFTFSSYNMNWVRQAPGKGLEWVSYISSSSSTIYYADSVKGRFTISRDNAKNSLSLQMNSLRDEDTAVYYCARAYYYGMDVWGQGTTVTVSS
VL: DIQMTQSPSSVSASVGDRVTITCRASQGISGWLAWYQQKPGKAPKFLIYAASTLQSGVPSRFSGSGSGTDFTLTISSLQPEDFATYYCQQANSFPPTFGGGTKVEIKR
notes: also called control antibody Enfortumab
Take B2: the EC50 with human Nectin-4 [4] is 57.2 µg/mL; with human Nectin-4 [5] it was 29.6 µg/mL; in the test with human Nectin-4 [2], 0.513 µg/mL; with Cyno Nectin4, 0.948 to 2.07 µg/mL. Further, the “EC50 (read off the curve)” value (in test [1]; in the test with His-tagged human NECTIN4 [6]) was ~0.1 µg/mL each time. This molecule also came in with a Kd in the test with His-tagged human NECTIN4 [3] of 4.94 nM.

These data come from patent US20230265183A1 (MABWELL SHANGHAI BIOSCIENCE, published 2023).
